This assay addresses RSV90 IgG (human). As to the kind of experiment: SPR.

RSV90 IgG (human), sequence (heavy, as listed by the source, chain 1 of 2): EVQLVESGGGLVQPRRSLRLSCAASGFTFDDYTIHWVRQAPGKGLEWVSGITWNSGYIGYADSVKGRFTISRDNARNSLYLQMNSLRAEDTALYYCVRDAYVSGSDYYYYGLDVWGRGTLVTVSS
RSV90 IgG (human), sequence (light, as listed by the source, chain 2 of 2): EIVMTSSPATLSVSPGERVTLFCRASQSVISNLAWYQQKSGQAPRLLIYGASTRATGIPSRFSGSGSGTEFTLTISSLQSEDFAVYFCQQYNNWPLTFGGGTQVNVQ

B1: RSVF-multi-3 (designed binder)
chain: DDLVDIFLRAFAKAAKVTRFDKNRGIIKTFSEEETEKLFKSLTEEEVEKIESALKSTNKAVVVLGDGDIEIEIDLDKLYALINDLDISNDQKKEMSNNFFEYLRKIAKK
Regarding B1, the equilibrium dissociation constant (Kd) was over 10 µM.

B2: RSVF-multi-4 (designed binder)
chain: MKLVIARVKSPKVKRLSEEDIEKIKSALKSTNKAVVTIKDENGEEIEVEVRLLTLEEALKYINDLPISNDAKKLMSNNIHKALEPGRTVVFGPEGCEERDKNRGIIKTFSTDVKLDETYFFFRVE
B2 had a dissociation constant Kd of over 10 µM.

One may read the Kd as the concentration at which binding is half-saturated. Low values mean higher affinity, high ones lower affinity.

Source of the values: article PMC13038408.
